Assay [1] deals with rhBMP-2 (Homo sapiens) (UniProt P12643). Put plainly: SPR. The note with it: cited from earlier work.
The target of assay [2] is rhOP-1 (BMP-7) (Homo sapiens) (UniProt P18075). Description: SPR. The conditions noted are these: cited from earlier work.
Assay [3] deals with rhTGF-β (Homo sapiens) (UniProt P01137). Put plainly: SPR. The conditions noted are these: cited from earlier work.
The target in assay [4] is TGF-β1 (Homo sapiens) (UniProt P01137). The note with it: cited from earlier work.
For assay [5], the target named is rhBMP-2 (Homo sapiens) (UniProt P12643). The note with it: cited from earlier work.
Assay [6] has as its target Recombinant human transforming growth factor-β1 (TGF-β1) (human) (UniProt P01137). Description: SPR; Biacore T-100, CM5 chip, amine coupling, HBS-EP running buffer; TGF-β immobilised as ligand, Spp24 proteins as analytes; five concentrations of each analyte; kinetic constants by the manufacturer's software. (In SPR one partner is held on a chip, and binding of the other changes the refractive index at the surface.)

In assay [7] the target is rhBMP-2 (Homo sapiens) (UniProt P12643). The note with it: cited from earlier work. The source holds these as a separate data set.

pKd: −log10 of the molar value. Where two headings read alike, the source gives them in different places. Where only a bound is given, the exact number is not on record here.

Drawing on PMC3753320, this text covers Kd, koff and kon for six substances.

Sequence of rhBMP-2 (Homo sapiens) (P12643 283-396): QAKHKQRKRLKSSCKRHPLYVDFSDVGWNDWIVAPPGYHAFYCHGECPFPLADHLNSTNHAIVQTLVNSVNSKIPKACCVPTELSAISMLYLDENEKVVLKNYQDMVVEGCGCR
Sequence of Recombinant human transforming growth factor-β1 (TGF-β1) (human) (P01137 279-390): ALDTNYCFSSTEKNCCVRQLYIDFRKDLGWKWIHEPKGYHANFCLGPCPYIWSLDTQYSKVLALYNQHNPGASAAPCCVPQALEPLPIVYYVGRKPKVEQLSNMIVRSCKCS
Sequence of Spp14.5, C-terminal truncation product of Spp24 (domain or fragment) (Q27967 24-203): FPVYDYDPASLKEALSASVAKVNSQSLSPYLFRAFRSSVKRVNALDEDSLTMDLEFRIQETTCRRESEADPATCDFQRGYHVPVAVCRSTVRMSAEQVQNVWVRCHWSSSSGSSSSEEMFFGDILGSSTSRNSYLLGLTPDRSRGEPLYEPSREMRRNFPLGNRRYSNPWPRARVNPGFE
Sequence of Spp16.0, C-terminal truncation product of Spp24 (domain or fragment) (Q27967 24-203): as above
Sequence of Spp18.1, C-terminal truncation product of Spp24 (domain or fragment) (Q27967 24-203): as above
Sequence of fetuin TRH1 peptide (P12763 114-133): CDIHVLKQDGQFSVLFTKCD
Sequence of rhTGF-β (Homo sapiens) (P01137 279-390): as the sequence (P01137 279-390) above
Sequence of TGF-β1 (Homo sapiens) (P01137 279-390): as above
Sequence of rhOP-1 (BMP-7) (Homo sapiens) (P18075 293-431): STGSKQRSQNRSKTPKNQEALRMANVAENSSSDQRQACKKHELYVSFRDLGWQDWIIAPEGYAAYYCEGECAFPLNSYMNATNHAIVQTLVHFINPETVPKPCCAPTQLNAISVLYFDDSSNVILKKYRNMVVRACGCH

In general, pKd refers to −log10 of the Kd, conventionally taken in molar units. With “BMP Binding Peptide (BBP) TRH1 domain (from UniProt Q27967)”, the pKd was 7.27 in assay [1], 7.94 in assay [2] and 7.17 in assay [3].

Take fetuin TRH1 peptide: the pKd is under 5.00 in assay [4] and 5.62 in assay [5].

As usually defined, the koff is a measure of how fast the partners let go of each other. As a reminder, the kon is a measure of how fast the partners come together. With “Spp18.1, C-terminal truncation product of Spp24 (domain or fragment)”, in assay [6], the negative-log Kd (pKd) was 5.86, the koff amounted to 0.0106 s⁻¹ and the kon is 10000 M⁻¹ s⁻¹.

For the substance “Spp16.0, C-terminal truncation product of Spp24 (domain or fragment)”, in assay [6], the negative-log Kd (pKd) was 5.49, the koff turned out to be 0.0122 s⁻¹ and the kon amounted to 5550 M⁻¹ s⁻¹.

Take “Spp14.5, C-terminal truncation product of Spp24 (domain or fragment)”: in assay [6], the pKd was 5.85, the koff was found to be 0.00589 s⁻¹ and the kon was found to be 4180 M⁻¹ s⁻¹.

On to Spp24 TRH1 peptide (BBP), for which the pKd in assay [7] is 4.52.
